The text below walks through data of article PMC12639820, “Antifactor H Autoantibody Characterization in Atypical Hemolytic Uremic Syndrome” (Kidney International Reports, 2025).

The target in this assay is T1, purified human C3b (human, UniProt P01024 23-667; P01024 749-1663).
T1 construct: C3b is the two-chain cleavage product of C3; source: purified human C3b
Put plainly: ELISA; C3b (5 ug/ml) or C3d (5 ug/ml) coated on wells; purified biotinylated human FH (6 ug/ml) preincubated in solution with different amounts of total IgG from patient serum (kAb) or NHS. Conditions: both partners purified. In general terms: An ELISA detects its analyte on a solid surface through an enzyme-linked reagent.

T1 sequence (P01024 23-667, chain 1 of 2): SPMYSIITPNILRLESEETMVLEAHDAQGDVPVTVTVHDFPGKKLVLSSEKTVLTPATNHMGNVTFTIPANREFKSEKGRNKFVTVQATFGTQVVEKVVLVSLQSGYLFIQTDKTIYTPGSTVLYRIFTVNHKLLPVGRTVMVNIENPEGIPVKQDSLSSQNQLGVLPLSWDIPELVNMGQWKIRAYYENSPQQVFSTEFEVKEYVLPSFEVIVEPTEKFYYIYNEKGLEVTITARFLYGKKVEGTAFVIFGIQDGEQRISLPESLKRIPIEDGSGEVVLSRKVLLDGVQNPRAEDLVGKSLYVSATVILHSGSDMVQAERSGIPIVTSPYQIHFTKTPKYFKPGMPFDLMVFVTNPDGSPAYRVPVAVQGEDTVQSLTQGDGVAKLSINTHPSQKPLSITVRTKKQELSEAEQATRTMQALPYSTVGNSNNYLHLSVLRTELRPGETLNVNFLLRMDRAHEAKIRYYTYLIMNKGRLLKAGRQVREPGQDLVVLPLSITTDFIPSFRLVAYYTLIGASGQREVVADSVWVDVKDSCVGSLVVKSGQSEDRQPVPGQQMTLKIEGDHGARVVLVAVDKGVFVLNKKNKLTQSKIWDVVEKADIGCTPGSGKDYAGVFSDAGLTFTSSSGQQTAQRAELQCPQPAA
T1 sequence (P01024 749-1663, chain 2 of 2): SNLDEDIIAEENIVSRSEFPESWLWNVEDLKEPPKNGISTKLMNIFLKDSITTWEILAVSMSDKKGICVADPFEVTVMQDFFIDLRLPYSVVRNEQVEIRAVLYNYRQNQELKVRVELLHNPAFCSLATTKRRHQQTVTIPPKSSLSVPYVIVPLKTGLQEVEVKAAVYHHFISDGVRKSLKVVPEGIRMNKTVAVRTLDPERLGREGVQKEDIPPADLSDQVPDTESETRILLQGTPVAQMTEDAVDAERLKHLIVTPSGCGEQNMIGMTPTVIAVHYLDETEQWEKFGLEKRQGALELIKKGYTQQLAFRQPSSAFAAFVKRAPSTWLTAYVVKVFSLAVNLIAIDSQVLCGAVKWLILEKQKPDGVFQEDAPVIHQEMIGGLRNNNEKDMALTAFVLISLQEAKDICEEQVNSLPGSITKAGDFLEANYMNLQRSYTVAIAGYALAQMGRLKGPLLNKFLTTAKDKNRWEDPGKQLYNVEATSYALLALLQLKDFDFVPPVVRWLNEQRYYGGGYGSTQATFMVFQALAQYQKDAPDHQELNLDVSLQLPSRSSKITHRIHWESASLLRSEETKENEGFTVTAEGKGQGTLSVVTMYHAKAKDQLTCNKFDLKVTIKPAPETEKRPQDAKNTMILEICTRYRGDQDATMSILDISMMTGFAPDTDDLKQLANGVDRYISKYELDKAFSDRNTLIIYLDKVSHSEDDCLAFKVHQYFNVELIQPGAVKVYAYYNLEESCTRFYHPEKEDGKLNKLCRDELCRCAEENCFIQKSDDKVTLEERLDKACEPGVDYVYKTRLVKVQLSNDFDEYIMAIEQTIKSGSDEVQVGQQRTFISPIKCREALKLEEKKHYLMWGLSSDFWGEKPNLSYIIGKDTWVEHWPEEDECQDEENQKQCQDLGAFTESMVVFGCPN

B1: purified biotinylated human factor H (natural protein, UniProt P08603 19-1231, looked up)
chain: EDCNELPPRRNTEILTGSWSDQTYPEGTQAIYKCRPGYRSLGNVIMVCRKGEWVALNPLRKCQKRPCGHPGDTPFGTFTLTGGNVFEYGVKAVYTCNEGYQLLGEINYRECDTDGWTNDIPICEVVKCLPVTAPENGKIVSSAMEPDREYHFGQAVRFVCNSGYKIEGDEEMHCSDDGFWSKEKPKCVEISCKSPDVINGSPISQKIIYKENERFQYKCNMGYEYSERGDAVCTESGWRPLPSCEEKSCDNPYIPNGDYSPLRIKHRTGDEITYQCRNGFYPATRGNTAKCTSTGWIPAPRCTLKPCDYPDIKHGGLYHENMRRPYFPVAVGKYYSYYCDEHFETPSGSYWDHIHCTQDGWSPAVPCLRKCYFPYLENGYNQNYGRKFVQGKSIDVACHPGYALPKAQTTVTCMENGWSPTPRCIRVKTCSKSSIDIENGFISESQYTYALKEKAKYQCKLGYVTADGETSGSITCGKDGWSAQPTCIKSCDIPVFMNARTKNDFTWFKLNDTLDYECHDGYESNTGSTTGSIVCGYNGWSDLPICYERECELPKIDVHLVPDRKKDQYKVGEVLKFSCKPGFTIVGPNSVQCYHFGLSPDLPICKEQVQSCGPPPELLNGNVKEKTKEEYGHSEVVEYYCNPRFLMKGPNKIQCVDGEWTTLPVCIVEESTCGDIPELEHGWAQLSSPPYYYGDSVEFNCSESFTMIGHRSITCIHGVWTQLPQCVAIDKLKKCKSSNLIILEEHLKNKKEFDHNSNIRYRCRGKEGWIHTVCINGRWDPEVNCSMAQIQLCPPPPQIPNSHNMTTTLNYRDGEKVSVLCQENYLIQEGEEITCKDGRWQSIPLCVEKIPCSQPPQIEHGTINSSRSSQESYAHGTKLSYTCEGGFRISEENETTCYMGKWSSPPQCEGLPCKSPPEISHGVVAHMSDSYQYGEEVTYKCFEGFGIDGPAIAKCLGEKWSHPPSCIKTDCLSLPSFENAIPMGEKKDVYKAGEQVTYTCATYYKMDGASNVTCINSRWTGRPTCRDTSCVNPPTVQNAYIVSRQMSKYPSGERVRYQCRSPYEMFGDEEVMCLNGNWTEPPQCKDSTGKCGPPPPIDNGDITSFPLSVYAPASSVEYQCQNLYQLEGNKRITCRNGQWSEPPKCLHPCVISREIMENYNIALRWTAKQKLYSRTGESVEFVCKRGYRLSSRSHTLRTTCWDGKLEYPTCAKR
modifications: biotin (biotinylated; sites not stated)
notes: complement factor H, human, 155 kDa serum protein of 20 CCP domains; purified human protein; also called FH; source: purified human FH, biotinylated
With B1, the binding result is “binds”.
